From patent US20260234247A1 (published 2026)

Experiments:
[1] = target: T1, Rhesus LILRB1 (F7H3G7) on CHOK1 cells (rhesus macaque); assay: flow cytometry on CHOK1-rhesus LILRB1 (F7H3G7) cells
T1 construct: whole, on cells; also called CHOK1-Rhesus LILRB1 (F7H3G7)

[2] = target: T2, human LILRB2 expressed on CHOK1 cells (human, UniProt Q8N423 22-597); assay: cell based RBA on CHOK1-hLILRB2 cells, flow cytometry; competitor HLA-G
T2 construct: whole, on cells; also called CHOK1-hLILRB2; CHOK1-LILRB2
T2 sequence (Q8N423 22-597): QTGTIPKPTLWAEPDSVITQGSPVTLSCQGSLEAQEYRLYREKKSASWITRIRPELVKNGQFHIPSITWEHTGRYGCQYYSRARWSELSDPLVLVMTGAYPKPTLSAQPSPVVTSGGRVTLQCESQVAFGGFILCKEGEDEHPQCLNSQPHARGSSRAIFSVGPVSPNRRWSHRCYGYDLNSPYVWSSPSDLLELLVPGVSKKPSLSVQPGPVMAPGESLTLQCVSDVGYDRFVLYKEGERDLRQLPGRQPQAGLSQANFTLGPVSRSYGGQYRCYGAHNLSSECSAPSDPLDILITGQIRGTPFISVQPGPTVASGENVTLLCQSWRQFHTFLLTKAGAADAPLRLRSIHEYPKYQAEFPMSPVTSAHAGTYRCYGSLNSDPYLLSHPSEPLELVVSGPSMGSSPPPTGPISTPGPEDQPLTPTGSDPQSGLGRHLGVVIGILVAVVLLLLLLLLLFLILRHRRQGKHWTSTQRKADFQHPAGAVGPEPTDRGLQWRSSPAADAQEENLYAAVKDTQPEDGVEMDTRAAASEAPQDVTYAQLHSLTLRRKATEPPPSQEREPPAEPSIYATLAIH

[3] = target: T2, human LILRB2 expressed on CHOK1 cells; assay: flow cytometry (FACS) binding to CHOK1-hLILRB2 cells
[4] = target: T3, human LILRB1 expressed on CHOK1 cells (human, UniProt Q8NHL6 24-650); assay: flow cytometry (FACS) binding to CHOK1-hLILRB1 cells
T3 construct: whole, on cells; also called CHOK1-hLILRB1; CHOK1-LILRB1
T3 sequence (Q8NHL6 24-650): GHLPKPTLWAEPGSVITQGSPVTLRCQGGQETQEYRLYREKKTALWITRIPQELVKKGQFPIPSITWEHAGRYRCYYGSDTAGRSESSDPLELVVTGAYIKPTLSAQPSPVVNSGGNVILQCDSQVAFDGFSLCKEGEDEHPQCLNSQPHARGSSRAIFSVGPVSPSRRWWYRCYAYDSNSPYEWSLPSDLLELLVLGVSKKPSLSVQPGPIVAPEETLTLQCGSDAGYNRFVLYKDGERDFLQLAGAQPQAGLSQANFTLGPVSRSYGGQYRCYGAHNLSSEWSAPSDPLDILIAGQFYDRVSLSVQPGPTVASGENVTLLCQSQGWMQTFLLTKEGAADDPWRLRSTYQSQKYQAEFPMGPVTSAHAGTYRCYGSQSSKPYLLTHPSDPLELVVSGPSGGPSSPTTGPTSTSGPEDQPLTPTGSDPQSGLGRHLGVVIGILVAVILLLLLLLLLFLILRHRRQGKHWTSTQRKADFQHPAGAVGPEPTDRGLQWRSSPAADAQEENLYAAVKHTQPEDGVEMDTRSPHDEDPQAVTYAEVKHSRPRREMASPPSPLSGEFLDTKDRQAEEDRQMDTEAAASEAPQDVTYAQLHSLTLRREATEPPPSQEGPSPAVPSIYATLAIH

[5] = target: T3, human LILRB1 expressed on CHOK1 cells; assay: cell based RBA on CHOK1-hLILRB1 cells, flow cytometry; competitor HLA-G

Binder	EC50 [1]	EC50 [2]	EC50 [3]	EC50 [4]	EC50 [5]	binding result [3]	binding result [4]
LK-RB1-50 (antibody, human IgG4 S228P, kappa, V domains shown, Anti-LILRB1 antibody) VH: QVQLKQSGPGLVQPSQSLSITCTVSGFSLTSYGVHWVRQSPGKGLEWLGVIWRGGNTDYNAPFVSRLSITKDNSQSQVFFKMNSLEADDTAIYYCAKNSLDVYSSWYFDVWGTGTTVTVSS VL: QIVLSQSPAILSAFPGEKVTMTCRASSSVSFMHWYQQKPGSSPKPWIYATSNLASGVPARFSGSGSGTSYSLTISRVEAEDAATYYCQQWSSNPLTFGAGTKLELKR	19.9 µM						
LK-RB1-58 (antibody, human IgG4 S228P, kappa, V domains shown, Anti-LILRB1 antibody) VH: QVQLKQSGPGLVQPSQSLSITCTVSGFSLTTYGVHWVRQSPGKGLEWLGVIWRGGSTDYNAAFMSRLSITKDNSKSQVFFRMNSLQADDTARYYCAKNSLYYGSSWYFDVWGTGTTVTVSS VL: QIVLSQSPAILSASPGEKVTMTCRASSSVSFMHWYQQKPGSSPKPWIYATSNLASGVPARFSGSGSGTSYSLTISRVEAEDAATYYCQQWSSNPPTFGGGTKLEIKR	17.9 µM						
LK-RB1-11 (antibody, human IgG4 S228P, kappa, V domains shown, Anti-LILRB1 antibody) VH: QVTLKESGPGILQPSQTLSLTCSFSGFSLKTSGMSVGWIRQPSGKGLEWLAHIWWNDDKYYNPVLKGRLTISKDTSNNLVFLKIASVVSTDTATYYCVRYGNSHGYWYFDVWGTGTTVTVSS VL: NIVLTQSPASLAVSLGQRATISCRASESVDSYGNNFIHWYQQKPGQPPKVLIYYASNLEAGVPARFSGSGSRTDFTLTIDPVEAEDAATYYCQQNNEDPYTFGGGTKLEIER	0.00078 µM						
LK-RBi-01 (bispecific antibody, human IgG4 S228P, kappa) heavy: not shown light: DIQMTQSPSSLSASVGDRVTITCETSENIYGALNWYQQKPGKAPKLLIYGATNLAEGVPSRFSGSGSGTDFTFTISSLQPEDIATYYCQNVLNTPWTFGGGTKLEIKRTVAAPSVFIFPPSDEQLKSGTASVVCLLNNFYPREAKVQWKVDNALQSGNSQESVTEQDSKDSTYSLSSTLTLSKADYEKHKVYACEVTHQGLSSPVTKSFNRGEC		0.38 µg/mL	0.8 nM	7.15 nM	1.4 µg/mL		
LK-RBi-02 (bispecific antibody, human IgG4 S228P, kappa) heavy: not shown light: DIQMTQSPSSLSASVGDRVTITCETSENIYGALNWYQQKPGKAPKLLIYGATNLAEGVPSRFSGSGSGTDFTFTISSLQPEDIATYYCQNVLNTPWTFGGGTKLEIKRTVAAPSVFIFPPSDEQLKSGTASVVCLLNNFYPREAKVQWKVDNALQSGNSQESVTEQDSKDSTYSLSSTLTLSKADYEKHKVYACEVTHQGLSSPVTKSFNRGEC		0.19 µg/mL	1.25 nM	1.27 nM	2.12 µg/mL		
LK-RBi-09 (bispecific antibody, human IgG4 S228P, kappa) heavy: not shown light: DIQMTQSPSSLSASVGDRVTITCETSENIYGALNWYQQKPGKAPKLLIYGATNLAEGVPSRFSGSGSGTDFTFTISSLQPEDIATYYCQNVLNTPWTFGGGTKLEIKGGSGGGGSGEIVLTQSPATLSLSPGERATLSCRASQSISDYLHWYQQKPGQAPRLLIKYASQSISGIPSRFSGSGSGTDFTLTISSLEPEDVAVYYCQNGHSFPYTFGGGTKLEIKRTVAAPSVFIFPPSDEQLKSGTASVVCLLNNFYPREAKVQWKVDNALQSGNSQESVTEQDSKDSTYSLSSTLTLSKADYEKHKVYACEVTHQGLSSPVTKSFNRGEC		0.43 µg/mL	1.29 nM	1.17 nM	1.03 µg/mL		
LK-RBi-06 (bispecific antibody, human IgG4 S228P, kappa) heavy: not shown light: DIQMTQSPSTLSASVGDRVTITCHASQSVDFWLNWYQQKPGKAPKLLISKASNLHTGVPSRFSGSGSGTEFTLTISSLQPDDFATYYCQQGQSYPLTFGQGTKLEIKRTVAAPSVFIFPPSDEQLKSGTASVVCLLNNFYPREAKVQWKVDNALQSGNSQESVTEQDSKDSTYSLSSTLTLSKADYEKHKVYACEVTHQGLSSPVTKSFNRGEC		0.57 µg/mL	0.73 nM	1.47 nM	1.31 µg/mL		
LK-RBi-07 (bispecific antibody, human IgG4 S228P, kappa) heavy: not shown light: DIQMTQSPSTLSASVGDRVTITCHASQSVDFWLNWYQQKPGKAPKLLISKASNLHTGVPSRFSGSGSGTEFTLTISSLQPDDFATYYCQQGQSYPLTFGQGTKLEIKRTVAAPSVFIFPPSDEQLKSGTASVVCLLNNFYPREAKVQWKVDNALQSGNSQESVTEQDSKDSTYSLSSTLTLSKADYEKHKVYACEVTHQGLSSPVTKSFNRGEC		0.97 µg/mL	1.58 nM	2.51 nM	1.22 µg/mL		
LK-RBi-11 (bispecific antibody, human IgG4 S228P, kappa) heavy: not shown light: DIQMTQSPSTLSASVGDRVTITCHASQSVDFWLNWYQQKPGKAPKLLISKASNLHTGVPSRFSGSGSGTEFTLTISSLQPDDFATYYCQQGQSYPLTFGQGTKLEIKGGSGGGGSGDIQMTQSPSSVSASVGDRVTITCRASENIYSNLAWYQQKPGKAPKLLIYAATNLAEGVPSRFSGSGSGTDYTLTISSLQPEDFATYYCQQFWDNPLTFGQGTKLEIKRTVAAPSVFIFPPSDEQLKSGTASVVCLLNNFYPREAKVQWKVDNALQSGNSQESVTEQDSKDSTYSLSSTLTLSKADYEKHKVYACEVTHQGLSSPVTKSFNRGEC		2.49 µg/mL	2.22 nM	2.31 nM	4.37 µg/mL		
LK-RBi-10 (bispecific antibody, human IgG4 S228P, kappa) heavy: not shown light: EIVLTQSPATLSLSPGERATLSCRASQSISDYLHWYQQKPGQAPRLLIKYASQSISGIPSRFSGSGSGTDFTLTISSLEPEDVAVYYCQNGHSFPYTFGGGTKLEIKGGSGGGGSGDIQMTQSPSSLSASVGDRVTITCETSENIYGALNWYQQKPGKAPKLLIYGATNLAEGVPSRFSGSGSGTDFTFTISSLQPEDIATYYCQNVLNTPWTFGGGTKLEIKRTVAAPSVFIFPPSDEQLKSGTASVVCLLNNFYPREAKVQWKVDNALQSGNSQESVTEQDSKDSTYSLSSTLTLSKADYEKHKVYACEVTHQGLSSPVTKSFNRGEC		0.5 µg/mL	1.06 nM	2.21 nM	0.91 µg/mL		
15G8 (antibody, human IgG4 S228P, kappa, V domains shown) VH: DVQLQGSGPGLVKPSETLSLTCSVTGYSITSGYYWNWIRQFPGKKLEWMGYISYDGSNNYNPSLKNRITISRDTSKNQFSLKLNSVTAADTATYYCAHGYSYYYAMDAWGQGTSVTVSS VL: DIQMTQSPSSLSASVGDRVTITCRTSQDISNYLNWYQQKPGKAVKLLISYTSRLHSGVPSRFSGSGSGTDYTLTISSLQPEDFATYYCQQGNTLPTFGQGTKLEIKR				1.17 nM	2.05 µg/mL	no binding	
LK-RB1-51 (antibody, human IgG4 S228P, kappa, V domains shown, Anti-LILRB1 antibody) VH: QVQIQQSGAELVKPGASVKLSCKASGYTFTEFPIHWIKQRSGQGLEWIGWFYPGSDNMNYNEKFKDKATLTADKSSSTVYMELSRLTSEDSAVYFCARHENAYFYAMDYWGQGTSVTVSS VL: ENVLTQSPAIMSASLGEKVTMSCRASSSVNYMYWYQQKSDASPKIWIYYTSNLAPGVPARFSGSGSGNSYSLTISSMEGEDAATYYCQQFTSSPFTFGTGTKLEIKR	26.6 µM						
LK-RB1-54 (antibody, human IgG4 S228P, kappa, V domains shown, Anti-LILRB1 antibody) VH: DVQLQESGPGLVKPSQSLSLTCSVTGYSITSGFYWNWIRQFPGNKLEWMGHISYDGTNNYNPSLKNRISITRDTSKNLFFLKLNSVTTEDTATFHCARGGYGGSYGFDYWGQGTTLTVSS VL: ENVLTQSPAIMSASLGEKVTMSCRASSSVNYMYWYQQKSDASPKLWIYYTSNLAPGVPVRFSGSGSGNSYSLTISSMEGEDAATYYCQQFTSSPWTFGGGTKLEIKR	24.2 µM						
hz73D1.v1 (antibody, human IgG4 S228P, kappa, V domains shown) VH: QVQLVQSGAEVKKPGASVKVSCKASGYTFTDYYINWVRQAPGQGLEWMGNVNPNDGGTTYNQKFKGRVTMTTDTSTSTAYMELRSLRSDDTAVYYCARREIYFYGTIYYYAMDYWGQGTLVTVSS VL: DIQLTQSPSFLSASVGDRVTITCRASESVDYYGNSFMYWYQQKPGKAPKLLIYFASNLESGVPSRFSGSGSGTEFTLTISSLQPEDFATYYCQQNNEDPWTFGGGTKVEIKR [hz73D1.v1, listing 1 of 2 here]	0.00125 µM						
hz73D1.v1 (antibody, human IgG4 S228P, kappa, V domains shown) VH: QVQLVQSGAEVKKPGASVKVSCKASGYTFTDYYINWVRQAPGQGLEWMGNVNPNDGGTTYNQKFKGRVTMTTDTSTSTAYMELRSLRSDDTAVYYCARREIYFYGTIYYYAMDYWGQGTLVTVSS VL: DIQLTQSPSFLSASVGDRVTITCRASESVDYYGNSFMYWYQQKPGKAPKLLIYFASNLESGVPSRFSGSGSGTEFTLTISSLQPEDFATYYCQQNNEDPWTFGGGTKVEIKR [hz73D1.v1, listing 2 of 2 here]		1.46 µg/mL	1.4 nM	5.37 nM	7.26 µg/mL		
J19.h1 (antibody, human IgG4 S228P, kappa, V domains shown) VH: QITLKESGPTLVKPTQTLTLTCTFSGFSLNTYAMGVSWIRQPPGKALEWLASIWWNGNKYNNPSLKSRLTVTKDTSKNQVVLTMTNMDPVDTATYYCAHSRIIRFTDYVMDAWGQGTLVTVSS VL: DIQMTQSPSSLSTSVGDRVTITCRASEDIYNDLAWYQQKPGKAPKLLIYNANSLHTGVASRFSGSGSGTDFTFTISSLQPEDVATYFCQQYYDYPLTFGQGTKLEIKR		0.46 µg/mL	0.27 nM				no binding
